Results from the nanobody polyreactivity screen of Harvey et al. (2022).

Experiment: yeast display, Sf9 membrane polyspecificity reagent, FACS + sequencing; frameworks hold sequencing errors
Summary of the method: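 Using colony PCR, genes from sorted yeast display clones were amplified, then sequenced on MiSeq at 2 × 250 and filtered by CDR length. The clones had been stained with 10% biotinylated, detergent-solubilized Sf9 membrane reagent for 1 hour at 4 °C and sorted by FACS into low and high (top ~1%) gates on anti-HA and streptavidin fluorescence. Polyreactivity labels come from the gate of origin.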

Sequence | polyreactivity (PSR sort gate)
QVQLVESGGGLVQAGGSLRLSCAASGRIFVYNAMGWYRQAPGKERELVAGITASGGSTYYADSGKGRFTISRDNAKNTVYLQMNSLKPEDTAVYYCAATRYKRRYYYWGQGTQVTVSS | high polyreactivity
QVQLVESGGGLVQAGGSLRLSCAASGRIFVYNAMGWYRQAPGQERELVAAISRGGSTNYADSVKGRFTISRDNAKNTVYLQMNSLKPEDTAVYYCAADIYQYGYDYWGQGTQVTVSS | low polyreactivity
QVQLVESGGGLVQAGGSLRLSCAASGRIFVYNVMGWYSQSPGKERELVAAISWGTGSTYADSVKGRFTISRDNAKNTVYLQMNSLKPEDTAVYYCADDSFIPPYDHWGQGTQVTVSS | low polyreactivity
QVQLVESGGGLVQAGGSLRLSCAASGRIFVYYAMGWYRPAPGKERELVAAITSGGSTYYADSVKGRFTISRDNANNTVYLQMNSLKPEDTAVYYSAAYRYYYLVYQQHREYGYWGQGSQVTVSS | high polyreactivity
QVQLVESGGGLVQAGGSLRLSCAASGRIFVYYTMGWYRQAPGKERELVAAITGSGGSTYYADSVKGRFTISRDNAKNTVYLQMNSLKPEDTAVYYCAARYASTGGGYKYYYWGQGTQVTVSS | high polyreactivity
QVQLVESGGGLVQAGGSLRLSCAASGRIFVYYVMGWYRQAPGKERELVAAITYSGGSTYYADSVKGRFTISRDNAKNTVYLQMNRLKTEDTAVYYCNKVDAFGIVRLYYWGQGTQVTVSS | low polyreactivity
QVQLVESGGGLVQAGGSLRLSCAASGRIFWANAMGWYRQAPGKERELVAAISRRGGSTYYADSVKGRFTISRDNAKNTVSLQMNSLKPEDTAVYYCNAVSPYTSDDYDYWGQGTQVTVSS | high polyreactivity
QVQLVESGGGLVQAGGSLRLSCAASGRIFWDIDMGWYRQAPGKEWELVAAISRRGGSTSYADSVKGRFTISRDNAKTTVYLQINSLKPEDTAVYYCNVRTRWTRVRRYDYWGQGTQVTVSS | high polyreactivity
QVQLVESGGGLVQAGGSLRLSCAASGRIFWDNAMGWYRQAPGKERELVAAISDSVVITYYADSVKGRFTISRDNAKNTVYLQMNSLKPEDTAVYYCAADKRGSVYLSSFWMDYWGQGTQVTVSS | low polyreactivity
QVQLVESGGGLVQAGGSLRLSCAASGRIFWHYAMGWYRQAPGKERELVAAIDYSGGRTRYADSVKGRFTISRDNAKNTVYLQMNSLKPEDTAVYYCAARRSSWGSFTGYYYWGQGTQVTVSS | high polyreactivity
QVQLVESGGGLVQAGGSLRLSCAASGRIFWINAMGWYRQAPGKERELVATISSGSTSYADSVKGRFTISRDNAKNTVYLHLNSLKPEDTAVYYCAVSLRYTRSGAYYYWGQGTQVTVSS | low polyreactivity
QVQLVESGGGLVQAGGSLRLSCAASGRIFWLYAMGWYRQAPGKERELVAVISWSGGTTYYADSVKGRFTISRDNAKNTVYLQMNSLKPEYTAVYYCAAQVGYYTNYGEFDYLGQGTQVTVSS | low polyreactivity
QVQLVESGGGLVQAGGSLRLSCAASGRIFWPYAMGWYRQAPGKERELVAAITSGGSTYYADSVKGRFTLSRDNAKNTVYLQMTSLKPEDTAVYYCAKRSSGVSVPVAYGGIKRYNSWGQGTQVTVSS | low polyreactivity
QVQLVESGGGLVQAGGSLRLSCAASGRIFWRNTMGWYRQAPGKERELVAAINYSGGRTYYADSVKGRFTISRDNAKNTVYLQMNSLKPEDTAVYYCAATPPVATNGRYYYWGQGTQVTVSS | low polyreactivity
QVQLVESGGGLVQAGGSLRLSCAASGRIFWVNVMGRYIQAPGKERELVPAITRGASTYADSVKGRFTISRDNAKNTVYLQMNSLKPEDTAVYYCAADTKRRSIRYDYWGEGTQVTVSS | high polyreactivity
QVQLVESGGGLVQAGGSLRLSCAASGRIFWVNVMGWSRQAPGKERELVAAITRGASTYADSVKGRFTISRDNAKNTVYLQMNSLKPEDTAVYYCAADTKRRSIRYDYWGQGTQVTVSS | high polyreactivity
QVQLVESGGGLVQAGGSLRLSCAASGRIFWYYAMGWYRQAPGKERELVATISSRSGSTYYADSVKGRFTISRDNAKNTVNLQMNSLKPEDTAVYYCAAGTPYYLGYRHNYWGQGTQVTVSS | high polyreactivity
QVQLVESGGGLVQAGGSLRLSCAASGRIFWYYAMGWYRQAPGKERELVDAISVDGGSTYDADSVKGRFTISRDNAKNTVYLQMNSLKPEDTAIYYCAAQKYPGFTHGYWGQGTQVTVSS | low polyreactivity
QVQLVESGGGLVQAGGSLRLSCAASGRIFWYYAVGWYRQAPGKERELVARISSSGGSTYYADSVKGRFTISRDNANNTVYLQMNSLKPEDTAVYYCAKERYSGSSRYPMDYWGQGTQVTVSS | high polyreactivity
QVQLVESGGGLVQAGGSLRLSCAASGRIFWYYDMGWYRQAPGKERELVAAITSGGRTYYADSVKGRFTISRDNAKNTVYLQMNRLKPEDTAVYYCAAEGFYTTGSPYSGGLDYWGQGTQVTVSS | low polyreactivity
QVQLVESGGGLVQAGGSLRLSCAASGRIFYANVMGWYRQAPGKEREFVSAIRWSGGRSYYADSVKGRFTISRDNAKYTVYLQMNSLKPEDTAVYYCAADGRVQSPQKFGYDYWGQGTQVTVSS | low polyreactivity

Sequence | polyreactivity (PSR sort gate)
QVQLVESGGGLVQAGGSLRLSCAASGRIFYAYAMGWYRPAPGKERELVAAITWRGGRTFYADSVKGRFTISRDNAKNTVYLQMNSLKPEDTAVYYCATRGAPYGMDYWGQGTQVTVSS | high polyreactivity
QVQLVESGGGLVQAGGSLRLSCAASGRIFYAYAMGWYRQAPGKEREFVAAISKRGGSTYYADSVKGRFTISRDNAKNTVYFQMNSLKPEDTAVYYCAADHEAIVRYDYWGQGTQVTVSS | low polyreactivity
QVQLVESGGGLVQAGGSLRLSCAASGRIFYAYAMGWYRQAPGKERELVAAISSGGSTKYADSVKGRFTISRDNAKNTVYLQMNSLKPEDTAVYYCNADATAQSFGTLFDYWGQGTQVTVSS | low polyreactivity
QVQLVESGGGLVQAGGSLRLSCAASGRIFYAYAMGWYRQAPGKERELVAAISWSGGSTYYADSVKGRFTISRDNAKNTVNLQMNSLKPEDTAVYYCNADYWGQGTQVTVSS | low polyreactivity
QVQLVESGGGLVQAGGSLRLSCAASGRIFYAYAMGWYRQAPGTERELVAAISSGGSTKYADSVKGRFTISRDNAKNTVYLQMNSLKPEDTAVYYCNADATAQSFGSLFDYWGLGTQVTVSS | low polyreactivity
QVQLVESGGGLVQAGGSLRLSCAASGRIFYDYTMGWYRQAPGKERELVAAINSGGGSTYYADSVKGRFTISRDNAKNTVYLQMNSLKPEDTAVYYCNADGQWNIWEYDYWGQGTQVTVSS | high polyreactivity
QVQLVESGGGLVQAGGSLRLSCAASGRIFYFNAMGWYRPAPGKDRELVADISSGGRTNYADSVKGRFTISRDNAKNTVYLQMNSLKPEDTAVYYCNAEAYTSSGGYRGYDFDYWGQGTQVTVSS | low polyreactivity
QVQLVESGGGLVQAGGSLRLSCAASGRIFYFYAMGWYRQAPGKERELVAAIDWSGGSTYYADSVKGRFTISRDNAKNTVYLQMNSLKPEDTAVYSCAARWRSKGVQYYYWGQGSQVTVSS | high polyreactivity
QVQLVESGGGLVQAGGSLRLSCAASGRIFYFYVMGWYRQAPGKERELVAGISDGSTNYADSVKGRFTISRDNAKNTVYLQMNSLKPEDTAVYYCAKDPLVIRFVQGRFGYDYWGQGTQVTVSS | low polyreactivity
QVQLVESGGGLVQAGGSLRLSCAASGRIFYGNPMGWYRQAPGKERELVAAISSGGGSTYYADSVKGRFTISRDNAKNTVYLQMNSLKPEDTAVYYCAADPVHRFPGTGGYWGQGTQVTVSS | low polyreactivity
QVQLVESGGGLVQAGGSLRLSCAASGRIFYGYTMGWYRQAPGKERELVAAITWSGGSTHYADSVKGRFTISRDNAKNTVYLQMNSLKPEVTAVYYCNARRRSVYRGLYDYWGQGTQVTVSS | high polyreactivity
QVQLVESGGGLVQAGGSLRLSCAASGRIFYGYTMGWYRQAPGKERELVARISSSGSTYYADSVKGRFTISRDNAKNTVYLQMNSLKPEDTAVYYCAAVRRRYGYDYWGQGTQVTVSS | high polyreactivity
QVQLVESGGGLVQAGGSLRLSCAASGRIFYGYVMGLYRQAPGKERELVAAISLSGGRTYYADSVKGRFTISRDNAKNTVYLQMNSLKPEDTAVYYCAAEGIKGISYGHDYWGQGTQVTVSS | low polyreactivity
QVQLVESGGGLVQAGGSLRLSCAASGRIFYHYAMGWYRQAPGKERELVAASNSSGGSTHYADSVKGRFTISRDNAKNTVYLQMNSLKPEDTAVYYCAADGYWRDYSGYWDYYYIYDYWGQGTQVTVSS | low polyreactivity
QVQLVESGGGLVQAGGSLRLSCAASGRIFYINAMGWYRQAPGKERELVAAISWSGSSTYYADSVKGRFTISRDNAKNTVYLQMNSLKPEDTAVYYCAAVSYKRVDYWGQGTQVTVSS | high polyreactivity
QVQLVESGGGLVQAGGSLRLSCAASGRIFYINAMGWYRQAPGKERELVAAITGGDGSTTYADSVKGRFTISRDNAKNTVYLQMNSLKPEDTAVYYCNADTARKYAESQFDHWGQGTQVTVSS | low polyreactivity
QVQLVESGGGLVQAGGSLRLSCAASGRIFYIYTMGWYRQAPGKEREFVAGINWNGGSTYYADSVKGRFTISRDNAKNTVYLQMISLKPEDSEVYYCNADQYWDRYYYWGQGTQVTVSS | low polyreactivity
QVQLVESGGGLVQAGGSLRLSCAASGRIFYKNVMGWYRQAPGKESELVATITRRGGRTFYADSVKGRFTISRDNAKNTVYLQMNSLKPEDTAVYYCATRRRIRSSFYYDIDYWGQGTQVTVSS | high polyreactivity
QVQLVESGGGLVQAGGSLRLSCAASGRIFYKYALGGYRQAPGKERELVAAISYSGGSTYYADSVKGRFTISRDNAKNTVYLQMKSLKPEDNAVYYCNAKPPFGVRSWGDYWGQGTQVTVSS | low polyreactivity
QVQLVESGGGLVQAGGSLRLSCAASGRIFYKYTMGWYRQAPGKERELVAAITDSDDSTYYADSVKGRFTISRDNAKITVYLQMNSLKPEDTAVYYCAASGPVTESDMDYWGQGTQVTVSS | low polyreactivity
